From patent US20040018529A1, “Functional cloning of genes encoding proteins/enzymes involved in proteolytic cleavage” (priority 1999, published 2004)
Peptide text beside a SMILES is read from it. * marks the point of attachment. Cbz = O=C(OCc1ccccc1)*; CH2F = FC*

Experiments:
[1] = tested on: 293T cells; assay: Apoptosis assay by visual inspection of transfected cells; format: cell-based, Human
Method: Apoptosis assays 293T cells were seeded onto 60 mm dishes at a density of 1.5×10^6 cells and, the next day, were transiently transfected with 2.5 μg plasmid DNA mixed with 15 μl lipofectamin reagent (Life Technologies, Grand Island, N.Y.). Twenty-four or 48 h after transfection, cell death was analyzed by one of the following methods. For the first assay, apoptosis was quantitated by visual inspection of cells. Cells with a shrunken, rounded, detached or blebbed appearance were scored as apoptotic. Usually 3 or more random fields were photographed and counted, and each field contained at least several hundred cells. In the case of co-transfection with green fluorescent protein (GFP)-expressing plasmid, cells were examined with an inverted fluorescent microscope, and only green cells with apoptotic features were counted. The second apoptotic assay used was the detection of nucleosomal ladder in apoptotic cells using ApoAlert LM-PCR ladder assay kit from Clontech. The procedure recommended by Clontech was followed.

[2] = target: modified caspase-3 containing the β-secretase cleavage site of APP of the Swedish version (expressed from plasmid pCBC1) (human); assay: cell-based or functional assay
[3] = tested on: caspase-3; assay: Caspase-3 activity assay (ApoAlert CPP32/Caspase-3 Fluorescent Assay kit); format: cell-based, Human; conditions: 293T cells, co-transfection with pCBC1, compared with controls
Source text: The protease activity of the caspase is also directly monitored in the cell extracts prepared as above. The ApoAlert® Caspase-3 assay kit, available commercially from Clontech, allows convenient fluorometric or colorimetric detection and assay of caspase-3. For example, the fluorescent kit detects the emission shift of 7-amino-4-trifluoromethyl coumarin (AFC). The AFC-substrate conjugate, DEVD-AFC, usually emits blue light (λmax=400 nm). However, upon proteolytic cleavage of the substrate by Caspase-3, free AFC fluoresces yellow-green (λmax=505 nm). Thus monitoring of emission at 505 nm in the cell extract, in relation to the uninduced control extract, allows determination of caspase activity. The activity can also be quantitated accurately and reproducibly using a standard curve established with free AFC. As described above, if there is endogenous expression of enzyme X in these cells, the caspase activity is generated in cells transfected only with pCTC1 (+) but not with pCTC1 (−).
Caspase-3 activity assay Caspase-3 activity was determined following the instructions of ApoAlert CPP32/Caspase-3 Fluorescent Assay kit (Clontech).

[4] = tested on: β-secretase; assay: β-NTF assay (ELISA of medium of transfected 293T cells); format: cell-based, Human; conditions: co-transfection with the APP expression plasmid, 48 h
Method: β-NTF assay 293T cells were seeded onto 60 mm dishes at a density of 1.5×10^6 cells and, the next day, were transiently transfected with 2.5 μg plasmid DNA mixed with 15 μl lipofectamin reagent (Life Technologies, Grand Island, N.Y.). In the case of transfection with pAPPsw plasmid, 0.5 μg pAPPsw was mixed with 2.0 μg carrier plasmid (unrelated plasmid). Twenty-four or 48 h after transfection, medium was collected and determined for […] by ELISA method as described [Liu, 2000]

[5] = tested on: modified caspase-3; assay: Western blot analysis of processing of the modified caspase-3; format: cell-based, Human; conditions: 293T cells, co-transfection with pCBC1, compared with the control
Source text: Western blot analysis Cells were collected in PBS and immediately lysed by the addition of an equal volume of 2×SDS loading buffer. After boiling and centrifugation, supernatants containing equal amount of proteins were loaded onto 14% SDS-PAGE gels. The proteins were resolved and transferred to a nylon membrane, and probed with antibodies against human caspase-3 (Santa Cruz Biotech, Santa Cruz, Calif.).

Molecule | cell death caused by transfection of pCBC1 plasmids ([1]; 10 μM inhibitor added immediately after DNA transfection) | caspase-3 activity in transfected 293T cells (caspase-3 fluorescent assay), over mock-transfected cells, 24 and 48 h [2] [fold] | number of apoptotic cells / cell death caused by the modified caspase-3 ([1]; co-transfection with pCBC1, compared with controls) | caspase-3 activity [3] | generation of β-NTF [4] | processed caspase-3 fragment (12 kDa) [5]
COC(=O)C[C@H](NC(=O)[C@H](C)NC(=O)[C@@H](NC(=O)OCc1ccccc1)C(C)C)C(=O)CF [Z-VAD.fmk, reference compound] (Cbz-Val-Ala-Asp(OMe)-CH2F) | significantly prevented cell death |  |  |  |  | 
endogenous β-secretase activity of human embryonic kidney 293T cells (enzyme) |  | 10 |  |  |  | 
BACE2: BACE2 expression plasmid; BACE2 competes in vivo with β-secretase for β-site APP cleavage (protein, UniProt Q9Y5Z0 63-518, looked up) Beta-secretase 2: ALEPALASPAGAANFLAMVDNLQGDSGRGYYLEMLIGTPPQKLQILVDTGSSNFAVAGTPHSYIDTYFDTERSSTYRSKGFDVTVKYTQGSWTGFVGEDLVTIPKGFNTSFLVNIATIFESENFFLPGIKWNGILGLAYATLAKPSSSLETFFDSLVTQANIPNVFSMQMCGAGLPVAGSGTNGGSLVLGGIEPSLYKGDIWYTPIKEEWYYQIEILKLEIGGQSLNLDCREYNADKAIVDSGTTLLRLPQKVFDAVVEAVARASLIPEFSDGFWTGSQLACWTNSETPWSYFPKISIYLRDENSSRSFRITILPQLYIQPMMGAGLNYECYRFGISPSTNALVIGATVMEGFYVIFDRAQKRVGFAASPCAEIAGAAVSEISGPFSTEDVASNCVPAQSLSEPILWIVSYALMSVCGAILLVLIVLLLLPFRCQRRPRDPEVVNDESSLVRHRWK |  |  | significantly reduced the number of apoptotic cells | lower caspase-3 activity than the controls | significantly inhibited the generation of β-NTF | significantly reduced
BACE2(D110A): catalytically inactive mutant of BACE2, expressed from plasmid (protein) APELAPAPFTLPLRVAAATNRVVAPTPGPGTPAERHADGLALALEPALASPAGAANFLAMVDNLQGDSGRGYYLEMLIGTPPQKLQILVATGSSNFAVAGTPHSYIDTYFDTERSSTYRSKGFDVTVKYTQGSWTGFVGEDLVTIPKGFNTSFLVNIATIFESENFFLPGIKWNGILGLAYATLAKPSSSLETFFDSLVTQANIPNVFSMQMCGAGLPVAGSGTNGGSLVLGGIEPSLYKGDIWYTPIKEEWYYQIEILKLEIGGQSLNLDCREYNADKAIVDSGTTLLRLPQKVFDAVVEAVARASLIPEFSDGFWTGSQLACWTNSETPWSYFPKISIYLRDENSSRSFRITILPQLYIQPMMGAGLNYECYRFGISPSTNALVIGATVMEGFYVIFDRAQKRVGFAASPCAEIAGAAVSEISGPFSTEDVASNCVPAQSLSEPILWIVSYALMSVCGAILLVLIVLLLLPFRCQRRPRDPEVVNDESSLVRHRWK |  |  |  | lower caspase-3 activity than the controls | significantly inhibited the generation of β-NTF | significantly reduced
